Experimental data taken from the supplement of paper PMC10065799, “High-throughput profiling of sequence recognition by tyrosine kinases and SH2 domains using bacterial peptide display” (eLife, 2023).

Legend:
Grb2 SH2 = Grb2 SH2 (UniProt P62993); experiment: SH2 binding enrichment of the phosphorylated peptide, bacterial display (enrichment ratio); higher = better substrate or ligand; peptides without Tyr show the background
SHP2-C SH2 = experiment: as above
c-Src SH2 = experiment: as above
FGFR3 = FGFR3 (UniProt P22607); experiment: phosphorylation enrichment, bacterial display (enrichment ratio); higher = better substrate or ligand; peptides without Tyr show the background
FGFR3, sequence (P22607 whole entry, looked up): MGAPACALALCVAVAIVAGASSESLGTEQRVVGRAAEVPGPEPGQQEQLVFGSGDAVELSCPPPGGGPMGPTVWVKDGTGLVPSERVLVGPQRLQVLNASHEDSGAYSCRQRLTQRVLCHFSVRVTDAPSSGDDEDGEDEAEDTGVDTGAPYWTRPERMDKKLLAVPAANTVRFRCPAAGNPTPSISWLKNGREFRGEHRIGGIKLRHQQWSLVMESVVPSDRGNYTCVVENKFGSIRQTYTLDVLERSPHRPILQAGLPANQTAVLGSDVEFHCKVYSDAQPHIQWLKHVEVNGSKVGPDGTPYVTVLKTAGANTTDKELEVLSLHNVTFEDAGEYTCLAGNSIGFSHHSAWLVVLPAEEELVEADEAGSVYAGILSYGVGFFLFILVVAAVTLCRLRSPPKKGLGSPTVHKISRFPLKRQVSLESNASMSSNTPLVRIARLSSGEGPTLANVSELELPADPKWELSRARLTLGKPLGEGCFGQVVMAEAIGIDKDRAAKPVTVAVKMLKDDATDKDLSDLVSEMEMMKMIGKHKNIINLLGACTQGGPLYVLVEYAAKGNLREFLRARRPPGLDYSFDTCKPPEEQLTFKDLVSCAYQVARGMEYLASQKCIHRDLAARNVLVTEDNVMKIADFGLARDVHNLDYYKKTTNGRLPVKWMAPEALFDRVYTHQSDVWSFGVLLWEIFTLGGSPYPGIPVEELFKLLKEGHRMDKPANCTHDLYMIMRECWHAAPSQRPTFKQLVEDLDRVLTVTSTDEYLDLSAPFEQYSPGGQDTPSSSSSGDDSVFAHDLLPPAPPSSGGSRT

MERTK = MERTK (UniProt Q12866); experiment: as above
MERTK, sequence (Q12866 whole entry, looked up): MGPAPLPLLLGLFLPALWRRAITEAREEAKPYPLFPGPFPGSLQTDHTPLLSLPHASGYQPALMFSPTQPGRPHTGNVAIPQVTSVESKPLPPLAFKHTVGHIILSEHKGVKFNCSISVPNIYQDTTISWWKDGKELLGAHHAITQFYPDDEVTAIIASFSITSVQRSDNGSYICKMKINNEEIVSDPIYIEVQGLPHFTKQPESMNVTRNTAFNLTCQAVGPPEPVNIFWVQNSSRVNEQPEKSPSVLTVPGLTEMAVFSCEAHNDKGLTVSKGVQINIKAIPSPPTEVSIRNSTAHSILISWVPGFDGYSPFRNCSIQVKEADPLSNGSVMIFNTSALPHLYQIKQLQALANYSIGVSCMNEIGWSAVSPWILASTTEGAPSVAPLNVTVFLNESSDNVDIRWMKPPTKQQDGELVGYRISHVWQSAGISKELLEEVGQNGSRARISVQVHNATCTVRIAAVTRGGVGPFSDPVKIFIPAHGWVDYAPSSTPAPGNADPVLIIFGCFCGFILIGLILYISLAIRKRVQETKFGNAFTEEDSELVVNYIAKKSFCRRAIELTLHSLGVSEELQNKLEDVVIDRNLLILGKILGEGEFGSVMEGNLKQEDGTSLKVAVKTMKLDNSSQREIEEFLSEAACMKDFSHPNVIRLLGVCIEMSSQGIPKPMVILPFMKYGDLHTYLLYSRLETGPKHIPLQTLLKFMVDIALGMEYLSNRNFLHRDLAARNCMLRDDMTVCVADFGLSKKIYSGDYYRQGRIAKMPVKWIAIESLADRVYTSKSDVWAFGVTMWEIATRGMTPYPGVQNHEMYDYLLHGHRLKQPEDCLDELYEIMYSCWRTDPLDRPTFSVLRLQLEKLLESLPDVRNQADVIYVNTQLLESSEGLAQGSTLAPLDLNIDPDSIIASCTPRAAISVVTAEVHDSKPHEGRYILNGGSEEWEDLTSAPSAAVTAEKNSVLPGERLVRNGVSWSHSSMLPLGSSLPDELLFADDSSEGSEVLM

EPHB2 = EPHB2 (UniProt P29323); experiment: as above
EPHB2, sequence (P29323 whole entry, looked up): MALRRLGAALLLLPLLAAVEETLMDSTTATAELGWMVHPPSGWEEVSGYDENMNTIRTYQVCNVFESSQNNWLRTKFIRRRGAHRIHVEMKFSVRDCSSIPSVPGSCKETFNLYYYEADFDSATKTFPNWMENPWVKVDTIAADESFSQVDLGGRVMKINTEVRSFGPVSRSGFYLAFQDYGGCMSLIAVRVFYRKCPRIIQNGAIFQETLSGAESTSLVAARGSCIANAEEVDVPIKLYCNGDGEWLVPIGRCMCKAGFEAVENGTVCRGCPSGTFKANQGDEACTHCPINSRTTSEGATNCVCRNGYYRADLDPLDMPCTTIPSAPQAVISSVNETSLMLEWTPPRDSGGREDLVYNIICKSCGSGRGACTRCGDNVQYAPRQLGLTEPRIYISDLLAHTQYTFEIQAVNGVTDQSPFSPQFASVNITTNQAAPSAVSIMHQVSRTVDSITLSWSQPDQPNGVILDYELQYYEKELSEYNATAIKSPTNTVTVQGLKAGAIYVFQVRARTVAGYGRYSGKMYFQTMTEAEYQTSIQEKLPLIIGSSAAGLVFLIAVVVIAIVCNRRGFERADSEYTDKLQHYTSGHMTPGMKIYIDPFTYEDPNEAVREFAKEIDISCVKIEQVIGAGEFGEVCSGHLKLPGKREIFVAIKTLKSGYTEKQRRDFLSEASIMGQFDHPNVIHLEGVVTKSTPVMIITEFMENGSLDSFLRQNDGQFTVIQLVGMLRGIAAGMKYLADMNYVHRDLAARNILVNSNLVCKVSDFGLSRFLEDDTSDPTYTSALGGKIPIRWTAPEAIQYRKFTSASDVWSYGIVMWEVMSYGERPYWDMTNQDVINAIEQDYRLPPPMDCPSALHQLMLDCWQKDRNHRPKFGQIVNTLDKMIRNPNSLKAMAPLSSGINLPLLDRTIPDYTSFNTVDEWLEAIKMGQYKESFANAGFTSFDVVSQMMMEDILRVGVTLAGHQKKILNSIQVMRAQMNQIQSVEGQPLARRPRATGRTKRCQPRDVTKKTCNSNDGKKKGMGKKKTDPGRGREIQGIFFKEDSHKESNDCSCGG

Fes = Fes (UniProt P07332); experiment: as above
Hck = Hck (UniProt P08631); experiment: as above
Hck, sequence (P08631 whole entry, looked up): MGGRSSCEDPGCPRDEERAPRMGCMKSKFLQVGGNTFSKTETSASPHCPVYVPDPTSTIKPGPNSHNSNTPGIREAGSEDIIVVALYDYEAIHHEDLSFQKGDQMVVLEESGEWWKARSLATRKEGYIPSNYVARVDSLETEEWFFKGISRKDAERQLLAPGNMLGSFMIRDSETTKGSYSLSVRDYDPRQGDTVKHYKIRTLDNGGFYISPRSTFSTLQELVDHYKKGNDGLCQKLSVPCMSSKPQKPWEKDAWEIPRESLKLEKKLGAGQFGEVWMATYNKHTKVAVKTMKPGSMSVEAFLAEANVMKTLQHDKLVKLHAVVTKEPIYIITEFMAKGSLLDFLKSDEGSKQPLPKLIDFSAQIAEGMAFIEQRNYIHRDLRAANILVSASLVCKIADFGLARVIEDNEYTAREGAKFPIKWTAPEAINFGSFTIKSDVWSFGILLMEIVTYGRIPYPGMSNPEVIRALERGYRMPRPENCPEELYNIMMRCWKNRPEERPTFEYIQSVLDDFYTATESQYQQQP

Jak2 = Jak2 (UniProt O60674); experiment: as above
Fyn = Fyn (UniProt P06241); experiment: as above
Fyn, sequence (P06241 whole entry, looked up): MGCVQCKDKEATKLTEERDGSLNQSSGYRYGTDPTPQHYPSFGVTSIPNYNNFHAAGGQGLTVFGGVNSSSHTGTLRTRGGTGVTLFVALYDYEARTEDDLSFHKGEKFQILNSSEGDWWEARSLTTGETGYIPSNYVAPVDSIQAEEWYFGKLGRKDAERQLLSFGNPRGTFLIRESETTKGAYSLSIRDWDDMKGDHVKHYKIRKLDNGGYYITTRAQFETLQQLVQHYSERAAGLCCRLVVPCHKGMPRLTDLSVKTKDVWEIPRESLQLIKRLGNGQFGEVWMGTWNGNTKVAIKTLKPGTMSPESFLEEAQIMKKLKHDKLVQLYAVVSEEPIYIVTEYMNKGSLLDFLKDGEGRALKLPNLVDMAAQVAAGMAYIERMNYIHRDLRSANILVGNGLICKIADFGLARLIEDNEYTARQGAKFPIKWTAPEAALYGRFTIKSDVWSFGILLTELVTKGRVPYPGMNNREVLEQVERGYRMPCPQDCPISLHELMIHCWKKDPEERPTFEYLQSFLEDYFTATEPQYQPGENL

c-Src = experiment: as above
FGFR1 = FGFR1 (UniProt P11362); experiment: as above
AncSZ = experiment: as above
Fer (mouse) = experiment: as above
c-Abl (mouse) = experiment: as above
EPHB1 = EPHB1 (UniProt P54762); experiment: as above
EPHB1, sequence (P54762 whole entry, looked up, the tested form may be a part): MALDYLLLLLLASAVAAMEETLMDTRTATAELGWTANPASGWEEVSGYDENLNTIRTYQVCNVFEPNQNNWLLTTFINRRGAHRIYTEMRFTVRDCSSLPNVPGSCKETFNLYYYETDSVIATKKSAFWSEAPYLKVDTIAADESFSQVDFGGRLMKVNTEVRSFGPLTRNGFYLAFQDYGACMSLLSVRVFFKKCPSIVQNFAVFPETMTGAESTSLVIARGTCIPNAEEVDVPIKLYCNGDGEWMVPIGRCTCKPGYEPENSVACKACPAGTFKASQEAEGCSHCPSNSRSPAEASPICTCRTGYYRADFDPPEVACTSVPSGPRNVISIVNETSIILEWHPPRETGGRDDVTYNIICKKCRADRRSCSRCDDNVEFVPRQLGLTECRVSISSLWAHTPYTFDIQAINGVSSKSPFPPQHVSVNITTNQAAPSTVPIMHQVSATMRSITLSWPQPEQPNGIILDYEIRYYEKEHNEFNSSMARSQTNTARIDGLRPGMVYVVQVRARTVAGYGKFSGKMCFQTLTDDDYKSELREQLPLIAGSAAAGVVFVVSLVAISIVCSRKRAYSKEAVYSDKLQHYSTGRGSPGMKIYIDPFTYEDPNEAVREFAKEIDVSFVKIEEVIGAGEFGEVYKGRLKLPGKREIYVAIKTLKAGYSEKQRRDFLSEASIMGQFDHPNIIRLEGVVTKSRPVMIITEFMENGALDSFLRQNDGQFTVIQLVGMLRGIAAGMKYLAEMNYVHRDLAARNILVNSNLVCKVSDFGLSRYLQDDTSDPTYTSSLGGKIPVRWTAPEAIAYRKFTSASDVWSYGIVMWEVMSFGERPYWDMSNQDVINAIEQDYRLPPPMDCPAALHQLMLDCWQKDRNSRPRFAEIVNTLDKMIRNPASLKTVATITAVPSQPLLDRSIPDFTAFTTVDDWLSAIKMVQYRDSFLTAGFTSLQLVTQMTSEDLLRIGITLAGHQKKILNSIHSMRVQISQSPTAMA
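Throughout, for SH2 binding enrichment of the phosphorylated peptide, bacterial display: peptide library displayed on the E. coli surface as eCPX fusions, selected cells deep-sequenced, score is each peptide's frequency after selection divided by its frequency in the input.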
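Throughout, for phosphorylation enrichment, bacterial display: 11-residue human phosphosite peptides and single-mutation variants displayed on the E. coli surface, counted by deep sequencing, each peptide's frequency after selection divided by its frequency in the unselected input library; frequency after pTyr selection over input frequency; kinase dosed for 20-30% of maximal phosphorylation in three min.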

Sequence	SH2 binding enrichment (Grb2 SH2)	SH2 binding enrichment (SHP2-C SH2)	SH2 binding enrichment (c-Src SH2)	phosphorylation enrichment (FGFR3)	phosphorylation enrichment (MERTK)	phosphorylation enrichment (EPHB2)	phosphorylation enrichment (Fes)	phosphorylation enrichment (Hck)	phosphorylation enrichment (Jak2)	phosphorylation enrichment (Fyn)	phosphorylation enrichment (c-Src)	phosphorylation enrichment (FGFR1)	phosphorylation enrichment (AncSZ)	phosphorylation enrichment (Fer (mouse))	phosphorylation enrichment (c-Abl (mouse))	phosphorylation enrichment (EPHB1)
PIYEGYGLPHA [ACTA1_Y171_A172G]	0.79	0.52	0.739	0.945	18.3	33.5	2.45	16.9	0.833	17.5	13.8	0.555	1.32	20.9	12.7	31
PKEQKYSFLQN [GH1_Y68]	0.909	1.06	1.05	0.978	1.18	0.951	0.862	0.577	0.688	0.692	0.554	0.719	0.972	0.627	0.625	0.465
PKGIGYGQGAG [CSRP3_Y73]	0.823	0.43	0.489	0.513	0.462	0.469	0.721	0.4	0.474	0.525	0.308	0.731	0.458	0.492	0.422	0.396
PLFRKYWPNHI [GREB1L_Y1560_YF]	0.855	0.973	0.461	0.565	0.633	0.498	0.994	0.727	0.695	0.698	0.491	0.505	1.17	0.482	0.557	0.589
PLLLSYYLIKW [NUP160_Y773]	1.29	1.45	0.966	3.73	1.68	0.947	1.83	0.628	4.49	0.358	0.854	4.29	1.33	0.633	1.2	1.14
PLYSKYWPNHI [GREB1L_Y1560_R1558S]	1.2	0.732	0.608	3.06	20.1	29.7	1.27	17.4	6.37	19.9	11.8	5.11	2.47	12.3	22.6	19.1
PNRILYGDFWQ [MYH6_Y717_R721W]	0.807	0.666	0.467	0.935	0.849	0.939	1.29	2.16	0.999	5.79	4.24	0.555	1.1	0.626	0.778	0.689
PSALGYSPSLH [LLGL2_Y40_R45H]	0.827	0.695	0.466	0.553	0.621	0.436	0.823	0.432	0.71	0.458	0.631	0.48	0.639	0.444	0.864	0.573
PSALGYSPSLR [LLGL2_Y40]	0.958	1.04	0.493	0.46	0.712	0.628	0.887	0.472	0.908	0.75	0.692	0.404	0.669	0.512	0.764	0.769
PTTKTYFPHFF [HBA1_Y43_D48Y_YF]	1.23	1.01	0.683	0.696	0.607	0.716	0.584	0.672	0.569	0.723	0.471	0.824	0.681	0.864	0.453	0.547
PVDTFYDSTRG [DYNC2H1_Y2231_M2227V_YF]	0.661	0.652	0.503	0.722	0.404	0.551	0.95	0.888	0.939	0.671	0.671	0.423	0.973	0.917	1.04	0.638
PVKSEYPSIKL [NPC2_Y119]	0.752	0.592	0.68	0.623	0.465	0.562	0.822	0.515	0.557	0.509	0.364	0.579	0.456	0.433	0.654	0.358
PVQAPYQKVVA [HBB_Y131_A130P]	0.8	1.3	0.561	0.429	0.691	0.691	0.94	0.687	0.687	0.539	0.563	0.436	0.744	0.381	0.732	0.543
QDLTDYLMKIL [ACTA2_Y190_R185Q]	1.33	1.23	0.861	0.698	0.809	0.772	1.55	0.916	1.34	0.657	0.546	0.807	1.01	0.558	1.13	0.523
QEEPEYWDQET [HLA-A_Y83_G80E]	0.798	0.476	0.491	1.43	0.384	0.793	1.95	0.699	2	0.943	0.823	0.897	2.08	0.902	0.907	1.08
QEGPEYWDGNT [HLA-B_Y83_R86G]	0.908	0.653	0.367	1.56	0.709	0.959	1.97	0.833	1.98	0.548	0.854	1.11	1.93	0.533	1.08	0.762
QEGPEYWDQET [HLA-A_Y83]	0.819	0.354	0.588	1.16	0.66	0.533	1.79	0.73	1.94	0.739	0.825	0.816	1.82	0.546	0.907	0.809
QFKGKYLAKHN [CASK_Y712_D710G_YF]	1.29	1.16	1.16	0.327	0.632	0.527	0.616	0.376	0.855	0.415	0.404	0.498	1.2	0.441	0.467	0.49

Now from value to sequence, other results behind:

SH2 binding enrichment (Grb2 SH2)	SH2 binding enrichment (SHP2-C SH2)	SH2 binding enrichment (c-Src SH2)	Sequence	phosphorylation enrichment (FGFR3)	phosphorylation enrichment (MERTK)	phosphorylation enrichment (EPHB2)	phosphorylation enrichment (Fes)	phosphorylation enrichment (Hck)	phosphorylation enrichment (Jak2)	phosphorylation enrichment (Fyn)	phosphorylation enrichment (c-Src)	phosphorylation enrichment (FGFR1)	phosphorylation enrichment (AncSZ)	phosphorylation enrichment (Fer (mouse))	phosphorylation enrichment (c-Abl (mouse))	phosphorylation enrichment (EPHB1)
0.996	0.631	0.851	PKAWNYELPAT [PROM1_Y34]	0.574	0.59	0.997	0.972	0.597	0.894	0.822	0.414	0.582	1.23	0.72	0.735	0.761
0.78	0.614	0.457	PKEEPYQMQEK [SLC5A3_Y565]	1.21	0.691	1.26	1.92	0.566	1.17	0.784	0.923	1	2.33	0.687	0.943	0.964
0.992	1.47	2.17	PKFHSYVSLPF [PLXNA2_Y293]	1.82	1.22	1.01	1.66	1.14	1.59	0.903	0.734	1.86	1.35	0.713	0.801	1.38
0.692	0.836	0.675	PLDGEYFTRQI [TP53_Y327_L330R]	0.651	0.54	0.435	1.01	0.686	0.637	0.547	0.841	0.387	1.09	0.291	1.2	0.441
0.841	0.743	0.529	PLTKVYVVEGS [ZMPSTE24_Y253]	0.73	0.418	0.538	0.952	0.441	0.526	0.494	0.554	0.494	0.814	0.567	0.617	0.487
1.14	1.88	1.23	PNQRRYVFFFS [PTEN_Y174_S170N_YF]	1.25	0.491	0.639	1.65	0.77	1.22	0.524	0.677	0.731	1.89	0.76	1.22	0.61
0.674	0.535	0.41	PSPTKYSLSPS [RANBP2_Y785_R784K]	0.471	0.473	0.492	0.669	0.354	0.725	0.318	0.514	0.515	1.19	0.534	0.553	0.437
1.25	1.16	0.896	PSQRHYVFFFS [PTEN_Y174_R173H_YF]	1.2	0.892	0.763	2.72	0.712	1.92	0.757	0.787	0.759	2.04	0.535	1.22	0.926
1.2	3.14	2.03	PSQRHYVYYYS [PTEN_Y174_R173H]	6.63	12.6	0.953	1.63	2.13	4.48	2.84	4.77	9.38	1.71	1.65	1.28	1.72
1.61	2.81	3.29	PSQRPYVYYYS [PTEN_Y174_R173P]	3.08	7.73	0.676	1.09	1.02	2.58	1.43	2.78	4.69	1.44	0.64	1	0.652
0.923	0.828	1.25	PSQRRNVYYYS [PTEN_Y174_Y174N]	1.41	4.42	0.657	0.838	0.74	0.916	0.837	0.9	1.36	0.567	0.568	0.47	0.397
1.3	1.64	0.819	PSQRRYVFFFS [PTEN_Y174_YF]	1.24	0.691	0.655	1.77	0.476	1.16	0.721	0.6	0.731	1.54	0.735	1.27	0.809
0.671	0.499	0.335	PTFKHYANSTQ [SLC12A3_Y70_E68K_YF]	0.599	0.375	0.506	0.774	0.507	0.455	0.482	0.365	0.574	0.651	0.509	0.591	0.603
0.73	0.584	0.398	PVGVLYKVKVY [PTS_Y128]	1.27	0.669	0.877	1.79	0.687	1.52	0.652	0.451	0.337	1.28	0.699	0.914	1.06
0.726	0.681	0.394	QDLLLYQTHSE [PKHD1_Y255_F253L]	1.28	0.745	1.94	1.54	1.48	1.61	1.16	1.77	0.713	1.86	1.81	0.888	1.27
